In patent US20210163538A1 (published 2021):
*1 amine or outer side, *2 acyl side, *3 side chain or, on linkers, in order; H or OH if unused. Bridges are numbered along the chain shown (N, C = ends). [ ]: non-standard residue; d: D form. AlexaFluor 647 = AlexaFluor 647 dye coupled as NHS ester to the Lys amine; Tyr(Me) = O-methyltyrosine, COc1ccc(C[C@H](N[*:1])C(=O)[*:2])cc1; Trp(5-F) = N[C@@H](Cc1c[nH]c2ccc(F)cc12)C(=O)O; mXylylene = c1cc(C[*:1])cc(C[*:2])c1; αMeP = C[C@@]1(C(=O)O)CCCN1; Mpa = O=C(O)CCS

Legend:
[1] = biological target: T1, biotinylated PCSK9 (UniProt Q8NBP7 31-692, limits assumed, biotinylated (site not stated)); assay: method not stated; KD of the labelled probe of the Alexa FRET Standard assay
T1 construct: also called europium-labeled PCSK9

[2] = biological target: T1, biotinylated PCSK9; assay: method not stated; KD of the labelled probe of the Alexa FRET Plus assay

T1 sequence (Q8NBP7 31-692 limits assumed): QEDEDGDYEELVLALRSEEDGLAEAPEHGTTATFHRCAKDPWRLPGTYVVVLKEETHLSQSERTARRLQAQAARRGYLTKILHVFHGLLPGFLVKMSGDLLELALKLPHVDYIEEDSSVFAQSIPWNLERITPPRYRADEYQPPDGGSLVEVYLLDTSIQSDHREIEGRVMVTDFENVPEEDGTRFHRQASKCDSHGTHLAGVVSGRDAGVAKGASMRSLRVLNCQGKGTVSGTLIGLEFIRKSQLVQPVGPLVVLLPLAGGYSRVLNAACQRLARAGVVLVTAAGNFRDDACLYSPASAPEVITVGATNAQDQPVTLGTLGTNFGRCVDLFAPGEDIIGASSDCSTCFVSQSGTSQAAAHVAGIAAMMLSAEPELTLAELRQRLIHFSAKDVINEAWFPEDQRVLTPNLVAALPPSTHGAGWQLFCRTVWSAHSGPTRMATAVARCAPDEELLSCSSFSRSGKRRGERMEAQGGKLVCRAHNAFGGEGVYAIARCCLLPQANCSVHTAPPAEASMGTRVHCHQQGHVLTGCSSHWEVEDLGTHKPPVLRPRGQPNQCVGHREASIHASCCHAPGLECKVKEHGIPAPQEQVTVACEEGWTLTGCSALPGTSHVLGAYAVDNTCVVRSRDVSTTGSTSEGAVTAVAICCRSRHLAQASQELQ

Kd [1]	Kd [2]	Binder
0.083 µM		[Mpa]K(AlexaFluor 647)G[Trp(5-F)][Trp(5-F)]DHY[αMeP]C-NH2 (linker N-10 via mXylylene, also called AlexaFluor647 (AF) tagged cyclic peptide; AF cyclic peptide) [Reagent A]
	0.035 µM	[Mpa]K(AlexaFluor 647)[dA][Trp(5-F)][Trp(5-F)]DH[Tyr(Me)][αMeP]C-NH2 (linker N-10 via mXylylene, also called AlexaFluor647 (AF) tagged cyclic peptide; AF cyclic peptide) [Reagent B]
